Source: the supplement of paper PMC10567573

B1: PCDHGA10 (parent)
chain: FHELQMQVTASDSGDPPLSSNVSL

Variants of: B1
Test: protein stability index of a GFP-peptide fusion (GPS, HEK-293T) (PSI 1-6); higher = more stable
Conditions: c terminus: a fixed tail appended
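Note: lentivirally expressed fusions sorted by FACS into six bins by GFP to DsRed ratio, PSI derived from sequencing read proportions per bin multiplied by bin number.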

Protein stability index, by site and new letter:
V8: W 1.25, P 3.33, C 2.56, H 2.7, T 2.81, N 3.72, F 1.95, D 4.05, R 3.2, L 2.15, I 2.29, M 2.28, Y 2.01, A 3.11, S 3.07, E 3.94, G 3.3, Q 3.51, K 3.06
S19: A 2.17
Q7: W 2.57, M 1.7, R 1.99, E 2.54, G 2.78, D 3.06, V 1.82, K 1.67, Y 2.69, C 1.6, I 2.62, F 2.66, S 1.74, L 1.89, N 2, T 2.33, H 2.09, A 2.04, P 1.71
S11: Y 1.47, F 1.55, P 2.21, N 2.03, D 2.3, R 1.96, T 2.4, C 2.12, I 1.88, M 1.78, V 1.93, W 2.59, Q 2.72, E 2.82, H 2.16, G 2.13, A 2.22, K 2.9, L 2.27
F1: Q 4.62, S 5.08, N 4.61, M 4.06, Y 2.78, R 4.66, W 3.81, P 4.8, V 4.11, T 4.57
Q5: A 2.26, I 1.82, Y 1.87, R 2.42, C 1.88, K 2.13, L 1.4, H 2.44, P 2.23, D 3.32, E 3.23, W 3.59, N 2.86, S 2.11, G 2.73, V 2.04, M 1.91, T 2.16, F 3.27
D15: E 1.98, R 2.18, H 1.88, C 1.79, V 1.92, L 1.64, Q 2.04, W 3.09, S 1.67, I 1.93, Y 1.42, K 1.85, P 1.95, F 1.4, T 1.8, M 1.91, G 1.97, A 2.08, N 2.48
D12: Y 2.54, M 3, K 2.35, E 2.23, Q 1.89, C 1.98, F 2.47, S 2.15, V 1.73, P 1.89, I 2.07, G 2.14, T 1.86, N 2.92, A 1.46, W 1.81, R 1.82, H 1.88, L 1.73
P17: H 1.85, Q 1.93, R 1.79, N 2.12, V 1.78, C 1.56, F 1.97, W 1.48, A 2.29, I 2.65, M 2.38, Y 1.52, S 2.13, D 2.28, T 1.93, G 2.14, E 2.28, K 2.43, L 1.16
T9: Q 2.73, K 2.65, R 2.88, G 2.86, E 3.53, A 2.55, Y 1.86, W 2.95, S 2.16, V 2.12, N 2.83, M 2.18, D 2.65, L 1.99, P 3.32, I 2.09, C 1.93, H 2.43, F 2.63
H2: L 2.51, R 3.85, V 1.92, E 4.28, W 1.78, Q 3.43, Y 2.31, I 1.88, M 2.81, S 3.83, G 3.94, K 3.84, A 3.07, N 4.47, F 2.21, T 2.81, P 3.99, D 4.49, C 2.11
E3: W 2.54, C 2.53, I 2.38, M 2.31, V 1.6, R 1.85, S 1.59, D 2.07, Y 2.26, L 1.92, K 2.21, H 1.75, Q 1.85, T 1.82, N 1.7, P 1.97, A 1.91, F 2.39, G 2.69
S13: C 2.43, A 1.82, R 2.12, G 2.33, I 1.66, D 2.53, K 2.01, W 1.6, T 1.75, E 2.69, M 2.08, V 1.67, H 2.1, P 1.71, L 2.13, Q 2.15, F 1.52, Y 1.88, N 2.43
M6: W 2.02, F 1.4, N 3.46, A 2.84, H 2.98, T 3.32, Y 2.46, D 3.81, L 2.58, V 2.56, C 2.47, R 3, I 1.65, S 3.29, E 3.77, G 3.07, P 3.87, K 2.52, Q 3.54
G14: V 2.59, K 2.31, R 2.21, D 2.6, H 2.54, Q 1.62, P 3.16, S 2.34, Y 1.94, L 2.11, W 2.11, I 2.12, F 1.82, E 2.98, A 2.33, M 2.09, C 2.44, T 2.31, N 2.27
P16: T 1.99, H 2.1, E 2.54, K 2.36, V 2.21, C 1.85, Q 2.08, I 1.7, S 2.04, W 1.69, N 2.23, D 2.49, R 2.19, G 2.33, L 1.57, M 2.14, Y 1.59, F 1.6, A 1.74
L4: I 2.28, H 2.87, T 2.97, Q 3.36, W 2.2, C 2.73, E 4.19, K 2.73, V 2.84, Y 2.04, A 2.76, N 3.6, P 2.57, S 3.46, F 1.39, G 2.67, D 3.84, M 2.24, R 2.77
L18: Q 3, I 2.33, K 2.31, H 3.04, V 2.43, D 3.51, G 3.05, E 2.53, T 2.74, S 3.29, P 3.02, A 2.5, W 2.3, Y 2.15, F 2.56, R 2.42, M 2.31, C 2.39, N 2.34
A10: L 1.29, M 1.49, R 1.48, I 2.38, Y 2.02, T 2.13, G 2.24, N 1.99, K 2.41, W 1.86, E 2.7, V 1.26, S 2.35, P 2.88, F 1.97, Q 2.44, C 1.74, D 2.62, H 2.51
